Results: patent US20140161821A1, “TREATMENT WITH ANTI-PCSK9 ANTIBODIES” (PFIZER INC., priority 2011, published 2014)

Assays:
[1] = system: PCSK9; assay: LDL-C and HDL-C in cynomolgus monkeys after IV dosing; type: in vivo
From the text: One (1) mg/kg dosing reached a maximum effect of 71% reduction in LDL-C on day 5, and began to recover immediately thereafter, reaching pre-dose levels by day 14. Three (3) mg/kg dosing reached a maximum effect of 72% reduction in LDL-C by day 7, levels began to recover by day 13, and returned to baseline by day 22. Ten (10) mg/kg dosing maintained the 70% reduction in LDL-C levels until day 21 post-dosing, and animals fully recovered by day 31. […] HDL-C levels were not affected by L1L3 treatment in all dose groups.
These two additional doses again lowered LDL-C and kept LDL-C levels below 50% for 4 weeks. LDL-C levels returned to normal two weeks later.

[2] = target: T1, PCSK9 (Homo sapiens, UniProt Q8NBP7); assay: Example 5 clinical study, four weekly IV doses: fasting LDL-C; type: in vivo, human Japanese subjects; settings: weekly IV 0.25, 0.5, 1.0, 1.5 mg/kg on Days 1, 8, 15, 22; baseline about 155 mg/dL
T1 construct: PCSK9 antagonist antibody that antagonizes circulating PCSK9; endogenous in cells; host or cells: human subjects in clinical trials (in vivo, circulating PCSK9)
T1 sequence (Q8NBP7 153-692): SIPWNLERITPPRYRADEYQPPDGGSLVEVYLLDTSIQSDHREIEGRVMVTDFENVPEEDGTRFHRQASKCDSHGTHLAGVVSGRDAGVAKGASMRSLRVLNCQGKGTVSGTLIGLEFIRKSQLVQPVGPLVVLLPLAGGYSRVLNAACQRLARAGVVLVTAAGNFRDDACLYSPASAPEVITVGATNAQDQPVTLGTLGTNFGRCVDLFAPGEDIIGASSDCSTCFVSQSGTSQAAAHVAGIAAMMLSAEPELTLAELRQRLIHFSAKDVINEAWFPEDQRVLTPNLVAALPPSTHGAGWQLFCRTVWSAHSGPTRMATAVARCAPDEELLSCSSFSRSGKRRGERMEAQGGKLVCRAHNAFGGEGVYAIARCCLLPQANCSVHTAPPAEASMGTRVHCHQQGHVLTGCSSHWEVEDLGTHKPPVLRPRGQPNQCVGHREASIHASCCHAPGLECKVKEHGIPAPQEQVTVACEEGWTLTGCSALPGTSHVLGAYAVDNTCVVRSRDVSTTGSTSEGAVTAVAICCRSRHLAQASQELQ
T1 sequence (Q8NBP7 31-152 partner limits assumed): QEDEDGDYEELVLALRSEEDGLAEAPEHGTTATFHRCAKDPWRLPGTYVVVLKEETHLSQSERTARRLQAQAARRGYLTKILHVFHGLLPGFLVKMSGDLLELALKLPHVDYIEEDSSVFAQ
From the text: This study was a randomized, multi-center, double-blind, placebo control, parallel designed trial with a 28 day screening period, 4 week treatment period and 8 week follow-up period (FIG. 11). […] For each subject, the study consisted of 3 periods: screening, treatment, and follow-up. […] The follow-up period will lasted approximately 8 weeks, from approximately Day 29 to the last visit (Day 78).

[3] = Example 3 clinical study: safety and adverse events; type: in vivo, human
Protocol: In the study, the incidence of subjects meeting toxicity or intolerable dose criteria was measured. Incidence of treatment emergent adverse events (TEAEs) categorized by severity and causal relationship to study drug was also be measured. The timeframe for measurement of each of the above outcomes was two months.

[4] = target: T2, PCSK9 (Rattus norvegicus, UniProt P59996); assay: Dose-response of serum cholesterol and triglycerides in Sprague-Dawley rats, single IP dose; type: in vivo
T2 construct: endogenous in cells; host or cells: live Sprague-Dawley rats (in vivo, serum PCSK9)
T2 sequence (P59996 152-691): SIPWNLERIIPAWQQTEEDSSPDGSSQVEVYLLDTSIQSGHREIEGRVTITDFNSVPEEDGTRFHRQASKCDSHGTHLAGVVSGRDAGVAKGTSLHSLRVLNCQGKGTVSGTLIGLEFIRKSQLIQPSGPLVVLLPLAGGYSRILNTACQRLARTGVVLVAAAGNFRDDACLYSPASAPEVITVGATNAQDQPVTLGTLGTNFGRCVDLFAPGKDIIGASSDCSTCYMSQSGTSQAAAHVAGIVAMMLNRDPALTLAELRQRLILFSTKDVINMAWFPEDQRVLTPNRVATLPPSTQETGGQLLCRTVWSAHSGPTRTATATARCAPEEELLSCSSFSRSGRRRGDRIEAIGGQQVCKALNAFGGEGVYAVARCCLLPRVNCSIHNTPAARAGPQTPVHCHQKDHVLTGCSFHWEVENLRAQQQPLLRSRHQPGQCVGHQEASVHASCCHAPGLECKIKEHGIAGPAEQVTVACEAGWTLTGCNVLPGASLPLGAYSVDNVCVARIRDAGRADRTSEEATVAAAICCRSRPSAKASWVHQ
From the text: The duration of the cholesterol repression was also dose dependent, ranging from 1 to 21 days.

[5] = target: T1, PCSK9; assay: Example 3 clinical study, single IV dose on stable atorvastatin: fasting LDL-C; type: in vivo
From the text: Subjects who have hypertension and are controlled on stable dosages of anti-hypertensive medications could be included. The study included both genders, with a minimum age limit of 18 and a maximum age limit of 80.

[6] = target: T1, PCSK9; assay: Example 6 clinical study, IV doses every 4 weeks on stable statin: lipids; type: in vivo; settings: for LDL-C lowering, % below baseline: by Day 29 (FIG. 15)
Protocol: This study was a randomized, multi center, double blind, placebo control, parallel designed trial with a 3 week screening period, 12 week treatment period and 8 week follow up period.
Subjects enrolled in the study met all of the following criteria: men and women subjects greater than equal to age of 18; body mass index of 18.5 to 40 kg/m^2; total body weight greater than 50 kg (110 lbs) and less than 150 kg (330 lbs); on a stable daily dose of a statin, defined as atorvastatin 40 or 80 mg, rosuvastatin 20 or 40 mg or simvastatin 40 or 80 mg for a minimum of 45 days prior to Day 1; lipids meet the following criteria at two qualifying visits (screening and Day −7): fasting LDL-C greater than or equal to 100 mg/dL, ;
The pre-specified primary efficacy endpoint was the percentage change from baseline of LDL-C at Day 85 analyzed using an ANCOVA model. The final ANCOVA model contained terms for baseline LDL-C and treatment. To preserve the overall type I error rate at a level of 0.05 for the primary endpoint analysis, a Haybittle-Peto, boundary with 0.001 alpha spent was employed.
The LDL-C data were subsequently analyzed using mixed model repeated measures to estimate both the treatment by time and empirical dose-response profiles.

[7] = target: T3, PCSK9 (Mus musculus, UniProt Q80W65); assay: Serum cholesterol in C57BL/6 mice after single IP dose; type: in vivo; settings: 10 mg/kg single IP
T3 construct: endogenous in cells; host or cells: live C57BL/6 mice (in vivo, serum PCSK9)
T3 sequence (Q80W65 156-694): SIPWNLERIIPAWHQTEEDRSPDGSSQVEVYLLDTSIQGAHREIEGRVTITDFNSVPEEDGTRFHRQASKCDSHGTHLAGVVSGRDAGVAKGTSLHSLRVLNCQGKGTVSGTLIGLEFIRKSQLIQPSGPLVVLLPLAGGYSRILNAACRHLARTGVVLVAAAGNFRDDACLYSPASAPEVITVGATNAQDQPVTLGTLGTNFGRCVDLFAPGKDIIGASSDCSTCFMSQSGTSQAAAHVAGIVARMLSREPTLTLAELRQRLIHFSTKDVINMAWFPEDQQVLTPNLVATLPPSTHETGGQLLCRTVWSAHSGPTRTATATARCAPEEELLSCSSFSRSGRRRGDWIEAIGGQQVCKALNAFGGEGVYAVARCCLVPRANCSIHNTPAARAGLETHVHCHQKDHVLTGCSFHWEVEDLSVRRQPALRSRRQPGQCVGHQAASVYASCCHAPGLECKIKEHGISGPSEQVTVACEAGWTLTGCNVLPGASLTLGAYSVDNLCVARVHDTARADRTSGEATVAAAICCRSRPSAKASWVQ
T3 sequence (Q80W65 35-155 partner limits assumed): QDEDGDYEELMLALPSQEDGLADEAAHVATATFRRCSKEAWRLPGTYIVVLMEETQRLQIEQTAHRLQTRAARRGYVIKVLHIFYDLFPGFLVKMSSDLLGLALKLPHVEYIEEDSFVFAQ
Protocol: Serum cholesterol levels recovered to 69 mg/dL by day 7 post-treatment.

[8] = single IV 0.5 or 4 mg/kg + atorvastatin 40 mg daily
[9] = IV every 4 weeks, stable daily statin

B1: L1L3: humanized (<5% murine residues) monoclonal PCSK9 antagonist antibody that binds to secreted PCSK9; VH SEQ ID NO: 11, VL SEQ ID NO: 12 (antibody, V domains shown)
VH: QVQLVQSGAEVKKPGASVKVSCKASGYTFTSYYMHWVRQAPGQGLEWMGEISPFGGRTNYNEKFKSRVTMTRDTSTSTVYMELSSLRSEDTAVYYCARERPLYASDLWGQGTTVTVSS
VL: DIQMTQSPSSLSASVGDRVTITCRASQGISSALAWYQQKPGKAPKLLIYSASYRYTGVPSRFSGSGSGTDFTFTISSLQPEDIATYYCQQRYSLWRTFGQGTKLEIK
modifications: heavy chain variable region; light chain variable region
For B1, the “Day by which LDL-C recovered” value ([1]; single IV 0.1 mg/kg) was ≤ 5 days, the “LDL-C drop (transient)” value ([1]; single IV 0.1 mg/kg, day 2) was 50% and the “Day by which LDL-C reached pre-dose levels” value ([1]; single IV 1 mg/kg) was ≤ 14 days. For the same molecule, the “LDL-C reduction, maximum effect” value ([1]; single IV 1 mg/kg, day 5) was 71%, the “Day by which LDL-C returned to baseline” value ([1]; single IV 3 mg/kg) was ≤ 22 days and the “LDL-C reduction, maximum effect” value ([1]; single IV 3 mg/kg, by day 7) was 72%. The “Day by which animals fully recovered (LDL-C)” value ([1]; single IV 10 mg/kg) was ≤ 31 days, the LDL-C reduction ([1]; single IV 10 mg/kg, maintained until day 21 post-dosing) was 70% and the HDL-C levels ([1]; single IV 0.1, 1, 3, 10 mg/kg, all dose groups) was “not affected”. For the same molecule, the “Serum HDL-C levels” value ([1]; two additional IV doses of 3 mg/kg on study days 42 and 56) was “remained unchanged”, the LDL-C levels ([1]; two additional IV doses of 3 mg/kg on study days 42 and 56, for 4 weeks) was “below 50%” and the “Fasting LDL-C” value [2] was “sustained, substantial and durable dose-dependent fasting LDL-C lowering”. The Discontinued subjects [3, 8] was “no discontinued subjects”, the “Intensity of TEAEs” value [3, 8] was “none were severe in intensity” and the “Serious adverse events (SAE)” value [3, 8] was “one serious adverse event (SAE), i.e. worsening of migraine headache, which was not drug-related”. The “Alanine aminotransferase (ALT) and/or aspartate aminotransferase (AST) elevation (TEAEs)” value ([3]; transient, without clinical signs/symptoms, all resolved within one week) was “greater than 3 ×ULN”, the “Non-fasting serum triglyceride levels, maximum increase” value ([4]; single IP 80 mg/kg) was “approximately three” and the “Serum cholesterol reduction, maximum effect” value ([4]; single IP 10 and 80 mg/kg, 48 hours post dosing) was 50%. The “mean percent change from baseline of fasting LDL-C” value (from here on “mean percent change from baseline”) ([5]; 0.5 mg/kg L1L3, atorvastatin 40 mg daily, Day 0) was 0.0%, the “mean percent change from baseline” value ([5]; 0.5 mg/kg L1L3, atorvastatin 40 mg daily, Day 1) was −28.8% and the “mean percent change from baseline” value ([5]; 0.5 mg/kg L1L3, atorvastatin 40 mg daily, Day 2) was −48.5%. For the same molecule, the “mean percent change from baseline” value ([5]; 0.5 mg/kg L1L3, atorvastatin 40 mg daily, Day 3) was −66.7%, the “mean percent change from baseline” value ([5]; 0.5 mg/kg L1L3, atorvastatin 40 mg daily, Day 11) was −34.4% and the “mean percent change from baseline” value ([5]; 0.5 mg/kg L1L3, atorvastatin 40 mg daily, Day 18) was 9.0%. For the same molecule, the “mean percent change from baseline” value ([5]; 0.5 mg/kg L1L3, atorvastatin 40 mg daily, Day 25) was 23.3%, the “mean percent change from baseline” value ([5]; 0.5 mg/kg L1L3, atorvastatin 40 mg daily, Day 32) was 14.8% and the “mean percent change from baseline” value ([5]; 0.5 mg/kg L1L3, atorvastatin 40 mg daily, Day 39) was 21.2%. For the same molecule, the “mean percent change from baseline” value ([5]; 0.5 mg/kg L1L3, atorvastatin 40 mg daily, Day 46) was 17.0%, the “mean percent change from baseline” value ([5]; 0.5 mg/kg L1L3, atorvastatin 40 mg daily, Day 53) was 27.9% and the “mean percent change from baseline” value ([5]; 0.5 mg/kg L1L3, atorvastatin 40 mg daily, Day 60) was 30.1%. For the same molecule, the “Day on which the maximum LDL-C lowering effect was observed” value ([5]; 0.5 mg/kg L1L3, atorvastatin 40 mg, day following L1L3 administration) was 3 days, the “mean percent change from baseline” value ([5]; 4 mg/kg L1L3, atorvastatin 40 mg daily, Day 0) was 0.0% and the “mean percent change from baseline” value ([5]; 4 mg/kg L1L3, atorvastatin 40 mg daily, Day 1) was −20.9%. The “mean percent change from baseline” value ([5]; 4 mg/kg L1L3, atorvastatin 40 mg daily, Day 2) was −38.4%, the “mean percent change from baseline” value ([5]; 4 mg/kg L1L3, atorvastatin 40 mg daily, Day 3) was −43.3% and the “mean percent change from baseline” value ([5]; 4 mg/kg L1L3, atorvastatin 40 mg daily, Day 11) was −64.6%. The “mean percent change from baseline” value ([5]; 4 mg/kg L1L3, atorvastatin 40 mg daily, Day 18) was −73.2%, the “mean percent change from baseline” value ([5]; 4 mg/kg L1L3, atorvastatin 40 mg daily, Day 25) was −70.8% and the “mean percent change from baseline” value ([5]; 4 mg/kg L1L3, atorvastatin 40 mg daily, Day 32) was −69.9%. For the same molecule, the “mean percent change from baseline” value ([5]; 4 mg/kg L1L3, atorvastatin 40 mg daily, Day 39) was −45.1%, the “mean percent change from baseline” value ([5]; 4 mg/kg L1L3, atorvastatin 40 mg daily, Day 46) was −19.2% and the “mean percent change from baseline” value ([5]; 4 mg/kg L1L3, atorvastatin 40 mg daily, Day 53) was −3.6%. The “mean percent change from baseline” value ([5]; 4 mg/kg L1L3, atorvastatin 40 mg daily, Day 60) was 7.1%, the “Day through which the maximum LDL-C lowering effect was observed” value ([5]; 4 mg/kg L1L3, atorvastatin 40 mg, day following L1L3 administration) was 32 days and the LDL-C lowering ([6]; 3 mg/kg and 6 mg/kg dosing regimens, persisted for 28 days (FIG. 16)) was “greater than 30%”. For the same molecule, the “LDL-C lowering, % below baseline” value ([6]; 3 mg/kg dosing regimen, stable daily statin) was “about 50%”, the “LDL-C lowering, % below baseline” value ([6]; 6 mg/kg dosing regimen, stable daily statin) was “about 65%” and the Effect on triglycerides [6, 9] was “No effect”. For the same molecule, the “Elevation of HDL” value [6, 9] was “up to 9%”, the “Difference in LS means (Test-Reference) of percentage changes from baseline for LDL-C” value ([6]; L1L3 0.25 mg/kg vs. Placebo on Day 85, MMRM) was 2.67 and the “Difference in LS means (Test-Reference) of percentage changes from baseline for LDL-C” value ([6]; L1L3 1 mg/kg vs. Placebo on Day 85, MMRM) was 0.83. For the same molecule, the “Difference in LS means (Test-Reference) of percentage changes from baseline for LDL-C” value ([6]; L1L3 3 mg/kg vs. Placebo on Day 85, MMRM) was −38.92, the “Difference in LS means (Test-Reference) of percentage changes from baseline for LDL-C” value ([6]; L1L3 6 mg/kg vs. Placebo on Day 85, MMRM) was −50.14 and the “Serum cholesterol reduction vs saline treated controls” value ([7]; 48 hours post treatment) was 37%. For the same molecule, the Serum cholesterol levels ([7]; 4 days post-treatment) was 44 mg/dL, the “Serum cholesterol reduction vs control animals” value ([7]; 4 days post-treatment) was 47% and the “Serum cholesterol levels (recovered)” value ([7]; day 7 post-treatment) was 69 mg/dL. It also gave a Serum cholesterol levels ([7]; normal diet, 48 hours post treatment) of 47 mg/dL.
